Reference: paper PMC7137648

How the values were obtained:
Conditions in all cases: glycan lost; control: wild-type SR-F1(20-421)
[1] = limited tryptic and chymotryptic proteolysis, SDS-PAGE
[2] = MALDI-TOF mass, SDS-PAGE, N-terminal sequencing
[3] = Ni-NTA purified yield from 293-F supernatant

B1: SR-F1 (SREC-I, SCARF1): N289Q (protein)
parent chain: MGLGLLLPLLLLWTRGTQGSELDPKGQHVCVASSPSAELQCCAGWRQKDQECTIPICEGPDACQKDEVCVKPGLCRCKPGFFGAHCSSRCPGQYWGPDCRESCPCHPHGQCEPATGACQCQADRWGARCEFPCACGPHGRCDPATGVCHCEPGWWSSTCRRPCQCNTAAARCEQATGACVCKPGWWGRRCSFRCNCHGSPCEQDSGRCACRPGWWGPECQQQCECVRGRCSAASGECTCPPGFRGARCELPCPAGSHGVQCAHSCGRCKHNEPCSPDTGSCESCEPGWNGTQCQQPCLPGTFGESCEQQCPHCRHGEACEPDTGHCQRCDPGWLGPRCEDPCPTGTFGEDCGSTCPTCVQGSCDTVTGDCVCSAGYWGPSCNASCPAGFHGNNCSVPCECPEGLCHPVSGSCQPGSGSRDTALIAGSLVPLLLLFLGLACCACCCWAPRSDLKDRPARDGATVSRMKLQVWGTLTSLGSTLPCRSLSSHKLPWVTVSHHDPEVPFNHSFIEPPSAGWATDDSFSSDPESGEADEVPAYCVPPQEGMVPVAQAGSSEASLAAGAFPPPEDASTPFAIPRTSSLARAKRPSVSFAEGTKFAPQSRRSSGELSSPLRKPKRLSRGAQSGPEGREAEESTGPEEAEAPESFPAAASPGDSATGHRRPPLGGRTVAEHVEAIEGSVQESSGPVTTIYMLAGKPRGSEGPVRSVFRHFGSFQKGQAEAKVKRAIPKPPRQALNRKKGSPGLASGSVGQSPNSAPKAGLPGATGPMAVRPEEAVRGLGAGTESSRRAQEPVSGCGSPEQDPQKQAEEERQEEPEYENVVPISRPPEP
structure_or_conformation [1]: no change
other: proteolytic processing [2]: increases, extra loss of 2.3–2.6 kDa compared with the N382Q and N393Q mutants
expression_or_secretion, other: protein purified per 100 ml supernatant [3]: decreases, 70 vs 450

B2: SR-F1 (SREC-I, SCARF1): N382Q (protein)
parent chain: B1 parent chain
structure_or_conformation [1]: no change
expression_or_secretion, other: protein purified per 100 ml supernatant [3]: decreases, 85 vs 450

B3: SR-F1 (SREC-I, SCARF1): N393Q (protein)
parent chain: B1 parent chain
structure_or_conformation [1]: no change
expression_or_secretion, other: protein purified per 100 ml supernatant [3]: decreases, 200 vs 450
